Numbered stars: 1 amine (or outer) side, 2 acyl side, 3 side chain; on linkers, the order of the positions; unused ones are H or OH. Bridge positions count the residues as written; N and C are the ends. Side chains are listed from the residue outwards. Ends that are not written are not given here. * marks the point of attachment. C20 diacid = O=C(O)CCCCCCCCCCCCCCCCCCC(=O)*; γGlu = O=C(O)[C@H](CCC(=O)[*:2])N[*:1]
T1: human amylin receptor (amylin 3(a) receptor: human calcitonin receptor co-expressed with RAMP-3) (human, UniProt P30988 25-474; O60896 24-148, limits assumed)
T1 sequence (looked up) 1: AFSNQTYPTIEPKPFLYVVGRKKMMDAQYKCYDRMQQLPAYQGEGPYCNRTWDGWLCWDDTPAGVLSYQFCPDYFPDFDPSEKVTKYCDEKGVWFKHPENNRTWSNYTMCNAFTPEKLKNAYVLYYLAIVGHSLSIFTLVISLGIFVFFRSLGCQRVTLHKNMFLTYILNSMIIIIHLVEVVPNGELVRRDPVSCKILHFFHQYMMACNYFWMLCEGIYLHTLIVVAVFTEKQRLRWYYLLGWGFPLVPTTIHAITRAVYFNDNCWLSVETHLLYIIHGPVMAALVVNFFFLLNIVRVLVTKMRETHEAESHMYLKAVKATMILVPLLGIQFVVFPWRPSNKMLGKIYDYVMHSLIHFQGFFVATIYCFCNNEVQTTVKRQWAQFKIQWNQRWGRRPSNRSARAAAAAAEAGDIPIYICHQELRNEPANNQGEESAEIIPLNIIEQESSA
T1 sequence (looked up) 2: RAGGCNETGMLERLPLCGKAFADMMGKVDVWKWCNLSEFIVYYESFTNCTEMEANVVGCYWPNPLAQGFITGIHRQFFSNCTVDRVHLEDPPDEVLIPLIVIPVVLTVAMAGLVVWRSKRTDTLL

T2: human calcitonin receptor (human, UniProt P30988 25-474)
T2 sequence (looked up): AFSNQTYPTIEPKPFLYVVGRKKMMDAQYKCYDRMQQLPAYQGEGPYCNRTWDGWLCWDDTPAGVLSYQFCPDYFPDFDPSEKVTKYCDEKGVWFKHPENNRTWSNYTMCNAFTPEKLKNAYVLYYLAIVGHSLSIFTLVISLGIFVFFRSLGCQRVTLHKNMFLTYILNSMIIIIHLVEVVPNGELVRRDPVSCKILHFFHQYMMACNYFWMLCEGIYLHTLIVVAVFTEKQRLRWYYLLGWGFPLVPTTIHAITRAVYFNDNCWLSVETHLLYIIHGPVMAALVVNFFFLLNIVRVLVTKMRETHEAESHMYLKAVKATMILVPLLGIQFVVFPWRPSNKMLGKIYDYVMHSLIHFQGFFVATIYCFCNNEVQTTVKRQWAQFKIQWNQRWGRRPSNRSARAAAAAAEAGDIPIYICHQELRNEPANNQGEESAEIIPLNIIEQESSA


Experiments:
[1] = target: T1, human amylin receptor (amylin 3(a) …); test: cell-based or functional assay
[2] = target: T2, human calcitonin receptor; test: cell-based or functional assay

Binder | Ratio hCT/hAmylin funct. [1] | hAmylin-R funct. EC50 [1] | hCTR funct. EC50 [2]
K([γGlu-C20 diacid])CNTATCATQRLAAFLRHSSPNFGAIPSSTNVGHNTY-NH2 (disulfide 2-7; N-terminus assumed; SMILES CC[C@H](C)[C@H](NC(=O)[C@H](C)NC(=O)CNC(=O)[C@H](Cc1ccccc1)NC(=O)[C@H](CC(N)=O)NC(=O)[C@@H]1CCCN1C(=O)[C@H](CO)NC(=O)[C@H](CO)NC(=O)[C@H](Cc1c[nH]cn1)NC(=O)[C@H](CCCNC(=N)N)NC(=O)[C@H](CC(C)C)NC(=O)[C@H](Cc1ccccc1)NC(=O)[C@H](C)NC(=O)[C@H](C)NC(=O)[C@H](CC(C)C)NC(=O)[C@H](CCCNC(=N)N)NC(=O)[C@H](CCC(N)=O)NC(=O)[C@@H](NC(=O)[C@H](C)NC(=O)[C@@H]1CSSC[C@H](NC(=O)[C@@H](N)CCCCNC(=O)CC[C@H](NC(=O)CCCCCCCCCCCCCCCCCCC(=O)O)C(=O)O)C(=O)N[C@@H](CC(N)=O)C(=O)N[C@@H]([C@@H](C)O)C(=O)N[C@@H](C)C(=O)N[C@@H]([C@@H](C)O)C(=O)N1)[C@@H](C)O)C(=O)N1CCC[C@H]1C(=O)N[C@@H](CO)C(=O)N[C@@H](CO)C(=O)N[C@H](C(=O)N[C@@H](CC(N)=O)C(=O)N[C@H](C(=O)NCC(=O)N[C@@H](Cc1c[nH]cn1)C(=O)N[C@@H](CC(N)=O)C(=O)N[C@H](C(=O)N[C@@H](Cc1ccc(O)cc1)C(N)=O)[C@@H](C)O)C(C)C)[C@@H](C)O, also called compound 93) | 9.7 | 0.118 nM | 1.15 nM
K([γGlu-C20 diacid])CNTATCATQRLANFLRHSSPNFGAIPSSTNVGHNTY-NH2 (disulfide 2-7; N-terminus assumed; SMILES CC[C@H](C)[C@H](NC(=O)[C@H](C)NC(=O)CNC(=O)[C@H](Cc1ccccc1)NC(=O)[C@H](CC(N)=O)NC(=O)[C@@H]1CCCN1C(=O)[C@H](CO)NC(=O)[C@H](CO)NC(=O)[C@H](Cc1c[nH]cn1)NC(=O)[C@H](CCCNC(=N)N)NC(=O)[C@H](CC(C)C)NC(=O)[C@H](Cc1ccccc1)NC(=O)[C@H](CC(N)=O)NC(=O)[C@H](C)NC(=O)[C@H](CC(C)C)NC(=O)[C@H](CCCNC(=N)N)NC(=O)[C@H](CCC(N)=O)NC(=O)[C@@H](NC(=O)[C@H](C)NC(=O)[C@@H]1CSSC[C@H](NC(=O)[C@@H](N)CCCCNC(=O)CC[C@H](NC(=O)CCCCCCCCCCCCCCCCCCC(=O)O)C(=O)O)C(=O)N[C@@H](CC(N)=O)C(=O)N[C@@H]([C@@H](C)O)C(=O)N[C@@H](C)C(=O)N[C@@H]([C@@H](C)O)C(=O)N1)[C@@H](C)O)C(=O)N1CCC[C@H]1C(=O)N[C@@H](CO)C(=O)N[C@@H](CO)C(=O)N[C@H](C(=O)N[C@@H](CC(N)=O)C(=O)N[C@H](C(=O)NCC(=O)N[C@@H](Cc1c[nH]cn1)C(=O)N[C@@H](CC(N)=O)C(=O)N[C@H](C(=O)N[C@@H](Cc1ccc(O)cc1)C(N)=O)[C@@H](C)O)C(C)C)[C@@H](C)O, also called compound 77) [N^ε1-[(4S)-4-carboxy-4-(19-carboxynonadecanoylamino)butanoyl]-[Arg17,Pro21,Pro27,His34]-h-amylin] |  | 0.145 nM | 5.4 nM
K([γGlu-C20 diacid])CNTATCATQRLARFLRHSSPNFGAIPSSTNVGSNTY-NH2 (disulfide 2-7; N-terminus assumed; SMILES CC[C@H](C)[C@H](NC(=O)[C@H](C)NC(=O)CNC(=O)[C@H](Cc1ccccc1)NC(=O)[C@H](CC(N)=O)NC(=O)[C@@H]1CCCN1C(=O)[C@H](CO)NC(=O)[C@H](CO)NC(=O)[C@H](Cc1c[nH]cn1)NC(=O)[C@H](CCCNC(=N)N)NC(=O)[C@H](CC(C)C)NC(=O)[C@H](Cc1ccccc1)NC(=O)[C@H](CCCNC(=N)N)NC(=O)[C@H](C)NC(=O)[C@H](CC(C)C)NC(=O)[C@H](CCCNC(=N)N)NC(=O)[C@H](CCC(N)=O)NC(=O)[C@@H](NC(=O)[C@H](C)NC(=O)[C@@H]1CSSC[C@H](NC(=O)[C@@H](N)CCCCNC(=O)CC[C@H](NC(=O)CCCCCCCCCCCCCCCCCCC(=O)O)C(=O)O)C(=O)N[C@@H](CC(N)=O)C(=O)N[C@@H]([C@@H](C)O)C(=O)N[C@@H](C)C(=O)N[C@@H]([C@@H](C)O)C(=O)N1)[C@@H](C)O)C(=O)N1CCC[C@H]1C(=O)N[C@@H](CO)C(=O)N[C@@H](CO)C(=O)N[C@H](C(=O)N[C@@H](CC(N)=O)C(=O)N[C@H](C(=O)NCC(=O)N[C@@H](CO)C(=O)N[C@@H](CC(N)=O)C(=O)N[C@H](C(=O)N[C@@H](Cc1ccc(O)cc1)C(N)=O)[C@@H](C)O)C(C)C)[C@@H](C)O, also called compound 83) [N^ε1-[(4S)-4-carboxy-4-(19-carboxynonadecanoylamino)butanoyl]-[Arg14,Arg17,Pro21,Pro27]-h-amylin] | 41.6 | 0.405 nM | 16.8 nM
K([γGlu-C20 diacid])CNTATCATQRLANFLRHSSPNFGAIPSSTNVGRNTY-NH2 (disulfide 2-7; N-terminus assumed; SMILES CC[C@H](C)[C@H](NC(=O)[C@H](C)NC(=O)CNC(=O)[C@H](Cc1ccccc1)NC(=O)[C@H](CC(N)=O)NC(=O)[C@@H]1CCCN1C(=O)[C@H](CO)NC(=O)[C@H](CO)NC(=O)[C@H](Cc1c[nH]cn1)NC(=O)[C@H](CCCNC(=N)N)NC(=O)[C@H](CC(C)C)NC(=O)[C@H](Cc1ccccc1)NC(=O)[C@H](CC(N)=O)NC(=O)[C@H](C)NC(=O)[C@H](CC(C)C)NC(=O)[C@H](CCCNC(=N)N)NC(=O)[C@H](CCC(N)=O)NC(=O)[C@@H](NC(=O)[C@H](C)NC(=O)[C@@H]1CSSC[C@H](NC(=O)[C@@H](N)CCCCNC(=O)CC[C@H](NC(=O)CCCCCCCCCCCCCCCCCCC(=O)O)C(=O)O)C(=O)N[C@@H](CC(N)=O)C(=O)N[C@@H]([C@@H](C)O)C(=O)N[C@@H](C)C(=O)N[C@@H]([C@@H](C)O)C(=O)N1)[C@@H](C)O)C(=O)N1CCC[C@H]1C(=O)N[C@@H](CO)C(=O)N[C@@H](CO)C(=O)N[C@H](C(=O)N[C@@H](CC(N)=O)C(=O)N[C@H](C(=O)NCC(=O)N[C@@H](CCCNC(=N)N)C(=O)N[C@@H](CC(N)=O)C(=O)N[C@H](C(=O)N[C@@H](Cc1ccc(O)cc1)C(N)=O)[C@@H](C)O)C(C)C)[C@@H](C)O, also called compound 79) [N^ε1-[(4S)-4-carboxy-4-(19-carboxynonadecanoylamino)butanoyl]-[Arg17,Pro21,Pro27,Arg34]-h-amylin] | 24.5 | 0.161 nM | 3.94 nM
K([γGlu-C20 diacid])CNTATCATQRLARFLRHSSPNFGAIPSSTNVGPNTY-NH2 (disulfide 2-7; N-terminus assumed; SMILES CC[C@H](C)[C@H](NC(=O)[C@H](C)NC(=O)CNC(=O)[C@H](Cc1ccccc1)NC(=O)[C@H](CC(N)=O)NC(=O)[C@@H]1CCCN1C(=O)[C@H](CO)NC(=O)[C@H](CO)NC(=O)[C@H](Cc1c[nH]cn1)NC(=O)[C@H](CCCNC(=N)N)NC(=O)[C@H](CC(C)C)NC(=O)[C@H](Cc1ccccc1)NC(=O)[C@H](CCCNC(=N)N)NC(=O)[C@H](C)NC(=O)[C@H](CC(C)C)NC(=O)[C@H](CCCNC(=N)N)NC(=O)[C@H](CCC(N)=O)NC(=O)[C@@H](NC(=O)[C@H](C)NC(=O)[C@@H]1CSSC[C@H](NC(=O)[C@@H](N)CCCCNC(=O)CC[C@H](NC(=O)CCCCCCCCCCCCCCCCCCC(=O)O)C(=O)O)C(=O)N[C@@H](CC(N)=O)C(=O)N[C@@H]([C@@H](C)O)C(=O)N[C@@H](C)C(=O)N[C@@H]([C@@H](C)O)C(=O)N1)[C@@H](C)O)C(=O)N1CCC[C@H]1C(=O)N[C@@H](CO)C(=O)N[C@@H](CO)C(=O)N[C@H](C(=O)N[C@@H](CC(N)=O)C(=O)N[C@H](C(=O)NCC(=O)N1CCC[C@H]1C(=O)N[C@@H](CC(N)=O)C(=O)N[C@H](C(=O)N[C@@H](Cc1ccc(O)cc1)C(N)=O)[C@@H](C)O)C(C)C)[C@@H](C)O, also called compound 65) |  | 0.242 nM | 9.33 nM
K([γGlu-C20 diacid])CNTATCATQRLARFLRHSSPNFGAIPSSTPVGSNTY-NH2 (disulfide 2-7; N-terminus assumed; SMILES CC[C@H](C)[C@H](NC(=O)[C@H](C)NC(=O)CNC(=O)[C@H](Cc1ccccc1)NC(=O)[C@H](CC(N)=O)NC(=O)[C@@H]1CCCN1C(=O)[C@H](CO)NC(=O)[C@H](CO)NC(=O)[C@H](Cc1c[nH]cn1)NC(=O)[C@H](CCCNC(=N)N)NC(=O)[C@H](CC(C)C)NC(=O)[C@H](Cc1ccccc1)NC(=O)[C@H](CCCNC(=N)N)NC(=O)[C@H](C)NC(=O)[C@H](CC(C)C)NC(=O)[C@H](CCCNC(=N)N)NC(=O)[C@H](CCC(N)=O)NC(=O)[C@@H](NC(=O)[C@H](C)NC(=O)[C@@H]1CSSC[C@H](NC(=O)[C@@H](N)CCCCNC(=O)CC[C@H](NC(=O)CCCCCCCCCCCCCCCCCCC(=O)O)C(=O)O)C(=O)N[C@@H](CC(N)=O)C(=O)N[C@@H]([C@@H](C)O)C(=O)N[C@@H](C)C(=O)N[C@@H]([C@@H](C)O)C(=O)N1)[C@@H](C)O)C(=O)N1CCC[C@H]1C(=O)N[C@@H](CO)C(=O)N[C@@H](CO)C(=O)N[C@H](C(=O)N1CCC[C@H]1C(=O)N[C@H](C(=O)NCC(=O)N[C@@H](CO)C(=O)N[C@@H](CC(N)=O)C(=O)N[C@H](C(=O)N[C@@H](Cc1ccc(O)cc1)C(N)=O)[C@@H](C)O)C(C)C)[C@@H](C)O, also called compound 63) |  | 0.037 nM | 5.13 nM

Reference: patent US20140087995A1 (published 2014)
